Source: the nanobody polyreactivity screen of Harvey et al. (2022)

Test: yeast display, Sf9 membrane polyspecificity reagent, FACS + sequencing; frameworks hold sequencing errors
Outline: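 Galactose-induced (36–48 hours) yeast carrying a synthetic nanobody display library were exposed to 10% biotinylated, detergent-solubilized Sf9 membrane reagent at 4 °C for 1 hour. FACS followed streptavidin microbead enrichment, using low and high (top ~1%) gates for expression (anti-HA) and reagent binding (streptavidin). Colony PCR, MiSeq 2 × 250 sequencing and CDR-length filtering followed. Labels for polyreactivity reflect the gate of origin.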

Sequence	polyreactivity (PSR sort gate)
QVQLVESGGGLVQAGGSLRLSCAASGRIFYRYAMGWYRQAPGKERELVAAISSAGSTNYADSVKGRFTISRDNAKNTVYLQMNSLKPEDTAVYYCNTVTRWVGKLEYWGQGTQVTVSS	high polyreactivity
QVQLVESGGGLVQAGGSLRLSCAASGRIFYRYAMGWYRQAPGKERELVAAITRGGRTNYADSVKGRFTISRDNAQNTVYLQMNSLKPEDTAVYYCRPLWYGFDYWGQGTQVTVSS	high polyreactivity
QVQLVESGGGLVQAGGSLRLSCAASGRIFYRYAMGWYRQAPGKERELVAGITRGGSTYYADSVKGRFTISRDNAKNTVYFQMNSLKPEDTAVYYCNVRWSPAGTGLLDYWGQGTQVTVSS	high polyreactivity
QVQLVESGGGLVQAGGSLRLSCAASGRIFYRYAMGWYRQAPGKERELVATITNGGSTNYADSVKGRFTISRDNAKNTVYLQMNSLKPEDTAVYYCAARLPGYYGIGDYWGQGTQVTVSS	high polyreactivity
QVQLVESGGGLVQAGGSLRLSCAASGRIFYRYAMGWYRQAPGKERELVAVISGGGTYYADSVKGRFTISRDNAKNTVYLQMNSLKPEDTAVYYCAADDGVSLVSPYYGGYDYWGQGTQVTVSS	low polyreactivity
QVQLVESGGGLVQAGGSLRLSCAASGRIFYRYGMGWYRQAPGKERELVASITRGGSTYYADSVKGRFTISRDNAKNTVYLQMNSLKPEDTAVYYCATKSSAGYDYWGQGTQVTVSS	low polyreactivity
QVQLVESGGGLVQAGGSLRLSCAASGRIFYRYSMGWYRQAPGKERELVAAIRYSGGTTYADSVKGRFTISRDNAKNTVYLQMNSLKPEDTAVYYCAARASLWGGFESWGQGTQVTVSS	high polyreactivity
QVQLVESGGGLVQAGGSLRLSCAASGRIFYSNAMGWYRQAPGKERELVAAISGSTDSTYYADSVKGRFTISRDNAKNTVYLQMNSLKPEDTAVYYCAAADYWFYYGYYLTMDYWGQGTQVTVSS	low polyreactivity
QVQLVESGGGLVQAGGSLRLSCAASGRIFYSNTMGWYRQAPGKERELVAAITWRGGRTHYADSVKGRLTISRDNAKNPVYLQMNSLTPEDTAVYYCAARYIPIQYPSYRTWGGYSWGQGTQVTVSS	high polyreactivity
QVQLVESGGGLVQAGGSLRLSCAASGRIFYSNVMGWYRQAPGKERELVAAISGRTGGTYYADSVKGRFTISRDNAKNTVYLQMNSLKPEDTAVYYCAARVGWNKRRYDYWGQGTQVTVSS	low polyreactivity
QVQLVESGGGLVQAGGSLRLSCAASGRIFYSYAMGWYRQAPGKERELDAAITRGGSTSYADSVKGRFTISRDNAKNTVYLQMNSLKPEDTAVYYCATRQFYSYWKYYYWGQGTQVTVSS	high polyreactivity
QVQLVESGGGLVQAGGSLRLSCAASGRIFYSYAMGWYRQAPGKERELVAAITESGGSTNYADSVKGRFTISRDNAKNTVYLQMNSLKPEDTAVYYCNARYKLTFNLYNYWGQGTQVTVSS	low polyreactivity
QVQLVESGGGLVQAGGSLRLSCAASGRIFYSYAMGWYRQAPGKERELVAAITRTGGNTYYADSVKGRFTISRDNAKNTVYLQMNSLKPEDTAVYYCNAEYWKEHYPEIYYSWGQGTQVTVSS	low polyreactivity
QVQLVESGGGLVQAGGSLRLSCAASGRIFYSYAMGWYRQAPGKERELVAAITVSGGSTFYADSVKGRFTISRDNAKNTVYLQMNSLKPEDTAVYYCAATRFSQYDWGQGTQVTVSS	high polyreactivity
QVQLVESGGGLVQAGGSLRLSCAASGRIFYSYAMGWYRQAPGKERELVARISSGGSTNYADSVKGRFTISRDNAKNTVYLQMNSLKPEDTAVYYCAAATIWSGVHYGYWGQGTQVNVSS	low polyreactivity
QVQLVESGGGLVQAGGSLRLSCAASGRIFYSYAMGWYRQAPGKERELVATISSGGSTNYADSVKGRFTISRDNAKNTVYLQMNSLKPEDTAVYYCARDSTYSSYTSNDYWGQGTQVTVSS	high polyreactivity
QVQLVESGGGLVQAGGSLRLSCAASGRIFYSYAMGWYRQAPGKERELVATITNGGSTNYADSVKGRFTMSRDNAKNTVYLQMNSLKPEDTAVYYCAKRSFRYASALVRYPPGYYWGQGTQVTVSS	high polyreactivity
QVQLVESGGGLVQAGGSLRLSCAASGRIFYTNAMGCYRQAPGKERELVAAIRSGGITTYADSVKGRFTISRDNAKNTVYLQMNSLKPEDTAVYYCATRILSIYSIFGAYDYWGQGTQVTVSS	low polyreactivity
QVQLVESGGGLVQAGGSLRLSCAASGRIFYTNAMGWSRQAPGKERELVAVISWGGDTTYYADSVKGRFTISRDNAKNTVYLQLNSLKPEDTAVYYCNADWGPTYEIYDSWGQGTQVTVSS	low polyreactivity
QVQLVESGGGLVQAGGSLRLSCAASGRIFYTYAMGWYRQAPGKASELVAAITYRGGSTYYADSVKGRFTISRDIAKNTVYLQMNSLKPADTAVYYCAARPGRGPDSRWRYKYDYWGQGTQVTVSS	high polyreactivity
QVQLVESGGGLVQAGGSLRLSCAASGRIFYVNAMGWYRQAPGKERELVAAISGSGGRTYYADSVKGRFTISRDNAKNTVYLQMNSLKPEDTAVYYWNTQFRYPQKYDYWGQGTQVTVSS	high polyreactivity
QVQLVESGGGLVQAGGSLRLSCAASGRIFYVNTMGWYRQAPGKERELVATISSAASTNYADSVKGRFTISRDNAKNTVYLQMNSLKPEDTAVYYCNAAFYKEYFYWGQGTQVTVSS	low polyreactivity

Sequence	polyreactivity (PSR sort gate)
QVQLVESGGGLVQAGGSLRLSCAASGRIFYVYAMGWYRQAPGKERELVAAISSDDGSTYYADSVKGRFTISRDNAKNTVYLQMNSLKPEVTAVYYCAKANKRGRYNYWGQGTQVTVSS	high polyreactivity
QVQLVESGGGLVQAGGSLRLSCAASGRIFYVYGLGWYRQEPGKERELVAAISKRGDNTYYADSVKGRFTISRDNSKNTVYLQMNSLKPEDTAVYYCKVKRYGGRSDYWGQGTQVTVSS	high polyreactivity
QVQLVESGGGLVQAGGSLRLSCAASGRIFYVYSMGWYRQAPGKDRELVADISRGGSTNYADSVKGRFTISRDNAKNTVYLQMNSLKPEDTAVYYCNTDGLWSAEYDYWGQGTQVTVSS	low polyreactivity
QVQLVESGGGLVQAGGSLRLSCAASGRIFYVYTMGWYRQAPGKERELVAAITWRGGSTYYADSVKGRFTISRDNAKNTVYLQMNSLKPEDTAVYYCATAQWVGYWDDYWGQGTQVTVSS	high polyreactivity
QVQLVESGGGLVQAGGSLRLSCAASGRIFYWYDMGWYRQAPGKERELVAAISTRGGSTYYADSVKGRFTISRDNAKNTVYLQMNSLKPEDTAVYYCAARANPYVLKYYYWGQGTQVTVSS	high polyreactivity
QVQLVESGGGLVQAGGSLRLSCAASGRIFYYNAMGWYRPAPGKERELVAAIDWSGGSTYYADSVKGRFTISRDNAKNTVYLQMNSLKPEDTAVYYCNAPFRYVPPEGSGPYDYWGQGTQVTVSS	low polyreactivity
QVQLVESGGGLVQAGGSLRLSCAASGRIFYYNAMGWYRPAPGKERELVATITGSGGSTYYADSVKGRFTISRDNAKNTVYLQMNSLKPEDTAVYYCNATRWYYDFYKLDYWGQGTQVTVSS	low polyreactivity
QVQLVESGGGLVQAGGSLRLSCAASGRIFYYNAMGWYRQAPGKERELVAGITWRGGSTYYADSVKGRFTISRDNAKNTVYVQMNSLKPEDTAVYYCAKVGWTPYGVSPYDYWGQGTQVTVSS	high polyreactivity
QVQLVESGGGLVQAGGSLRLSCAASGRIFYYNAMGWYRQAPGKEWELVAAISSSGTTYYADSVKGRFTISRDNAKNTVYLQMNSLKPEDTAVYYCAAGSYWSPYGQSFWPKYDYWGQGTQVTVSS	high polyreactivity
QVQLVESGGGLVQAGGSLRLSCAASGRIFYYNGMGWSRQAPGKERELVAAITANGGSTYYADSVKGRFTISRDNAKNTVYLQMNSLKPDDTAVYYCAARYRFGGIRRYNYWGQGTQVTVSS	high polyreactivity
QVQLVESGGGLVQAGGSLRLSCAASGRIFYYNGMGWYRQAPGKERELVAAIRWSGGSTRYADSVKGRFTISRDNAKNTVYLQMNSLKPEDTAVYYCAADGFYRWYPYKRYQFYYWGQGTQVTVSS	high polyreactivity
QVQLVESGGGLVQAGGSLRLSCAASGRIFYYNTMGWYREAPGTERELVAAISSGAGRTYYADSVKGRFTISRDNAMNTVYLQMNSLKPEDTAVYYCAARFYVIKWYDYWGQGTQVTVSS	high polyreactivity
QVQLVESGGGLVQAGGSLRLSCAASGRIFYYNTMGWYRQAPGKERELVAAISSTASTTYADSVKGRFTISRDNAKNTDYIQMNSLKPEDTAVYYCAADHRYHWANPRGYYYWGQGTQVTVSS	high polyreactivity
QVQLVESGGGLVQAGGSLRLSCAASGRIFYYNTMGWYRQSPGKERELVAAISSTASTTYADSVKGRFTISRENAKNTVYLKMNILKPEDTAVYYCAAAYSVRGRTYDSWGQGTQVTVSS	high polyreactivity
QVQLVESGGGLVQAGGSLRLSCAASGRIFYYSAMGWSRQAPGIERELVAAITRRGGSTYYADSVKGRVTISRDNAKNTVFLQMNSLKPEDTEVYYSAKPDRTCWLDGDYWGQGSQVTVSS	low polyreactivity
QVQLVESGGGLVQAGGSLRLSCAASGRIFYYYAMGWSRQAPGKERELVAGISYSGGRTYYADSVKGRFTISRDNAKNTVYLQMNSLKPEDTAVYYCAAAYRGANYGYGFDYWGQGTQVTVSS	high polyreactivity
QVQLVESGGGLVQAGGSLRLSCAASGRIFYYYAMGWYRPAPGKERELVAAITSGGRTYYADSVKGRFTISRDNAKNTVYLQMNSLKPEDTAVYYCAAERTYTYLGPGYEYWGQGTQVTVSS	low polyreactivity
QVQLVESGGGLVQAGGSLRLSCAASGRIFYYYAMGWYRQAPGKERELFADITWSGGSTYYADSVKGRFTISRDNAKNTVYLQMNSLKPEDTAVNYCNAVYFNYLLEYDYWGQGTQVTVSS	high polyreactivity
QVQLVESGGGLVQAGGSLRLSCAASGRIFYYYAMGWYRQAPGKERELVAAITRRGGSTYYADSVKGRFTISRDNAKNTVYLQLNSLKPEDTAVYYCAKPDRTGWLDGDYWGQGTQVTVSS	low polyreactivity
QVQLVESGGGLVQAGGSLRLSCAASGRIFYYYAMGWYRQAPGKERELVAASSTYYADSVKGRFTISRDNAKNTVYLQMNSQKPEDTAVYYCAAVTFSYDGYDYWGPGTQVTVSS	low polyreactivity
QVQLVESGGGLVQAGGSLRLSCAASGRIFYYYDMGWYRQAPGKERELVAGINDDSSTYYADSVKGRFTISRDNAKNTVYLQMNSLKPEDTAVYYCNAGPSWYPSWYYYWGQGTQVTVSS	low polyreactivity
